# Assay results reported in PMC11983130.
# Legend:
# SRSF1 RRM1+2 (ASF/SF2) [1] = biological target: T1, SRSF1 RRM1+2 (ASF/SF2) (UniProt Q07955 1-196); test: competition
# SRSF1 RRM1+2 (ASF/SF2) [2] = biological target: T1, SRSF1 RRM1+2 (ASF/SF2); test: competition; remark: listed apart in the source
# SRSF1 RRM1+2 (ASF/SF2) [3] = biological target: T1, SRSF1 RRM1+2 (ASF/SF2); test: fluorescence anisotropy
# T1 sequence (Q07955 1-196): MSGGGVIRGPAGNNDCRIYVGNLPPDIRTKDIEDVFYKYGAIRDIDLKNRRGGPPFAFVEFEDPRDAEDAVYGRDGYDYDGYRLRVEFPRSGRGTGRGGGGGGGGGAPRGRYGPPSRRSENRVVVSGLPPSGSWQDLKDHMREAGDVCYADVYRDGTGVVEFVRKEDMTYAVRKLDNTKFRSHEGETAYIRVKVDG
binder,measurement,setting,value
AAAAUUAAAAUUAAAAUUAAAAUU (ssRNA) [(A4U2)4 unlabeled],Kd,SRSF1 RRM1+2 (ASF/SF2) [1],~200 nM
"GGGGCCGGGGCCGGGGCCGGGGCC (ssRNA) [(G4C2)4 unlabeled, folded without K+]",Kd,SRSF1 RRM1+2 (ASF/SF2) [2],< 21 nM
AAAUCAGAGGAAAA (ssRNA) [SRSF1 canonical motif RNA],Kd,SRSF1 RRM1+2 (ASF/SF2) [3],21 ± 3 nM
